Columns and labels:
[1] = biological target: progesterone receptor isoform A (PR-A), full-length, Strep II-tagged (human) (UniProt P06401); experiment: SEC-MALS
[2] = biological target: steroid receptor coactivator 3 (SRC3), full-length, Strep II-tagged (human) (UniProt Q9Y6Q9); experiment: SEC-MALS
Chain of steroid receptor coactivator 3 (SRC3), full-length, Strep II-tagged (human) (Q9Y6Q9 whole entry): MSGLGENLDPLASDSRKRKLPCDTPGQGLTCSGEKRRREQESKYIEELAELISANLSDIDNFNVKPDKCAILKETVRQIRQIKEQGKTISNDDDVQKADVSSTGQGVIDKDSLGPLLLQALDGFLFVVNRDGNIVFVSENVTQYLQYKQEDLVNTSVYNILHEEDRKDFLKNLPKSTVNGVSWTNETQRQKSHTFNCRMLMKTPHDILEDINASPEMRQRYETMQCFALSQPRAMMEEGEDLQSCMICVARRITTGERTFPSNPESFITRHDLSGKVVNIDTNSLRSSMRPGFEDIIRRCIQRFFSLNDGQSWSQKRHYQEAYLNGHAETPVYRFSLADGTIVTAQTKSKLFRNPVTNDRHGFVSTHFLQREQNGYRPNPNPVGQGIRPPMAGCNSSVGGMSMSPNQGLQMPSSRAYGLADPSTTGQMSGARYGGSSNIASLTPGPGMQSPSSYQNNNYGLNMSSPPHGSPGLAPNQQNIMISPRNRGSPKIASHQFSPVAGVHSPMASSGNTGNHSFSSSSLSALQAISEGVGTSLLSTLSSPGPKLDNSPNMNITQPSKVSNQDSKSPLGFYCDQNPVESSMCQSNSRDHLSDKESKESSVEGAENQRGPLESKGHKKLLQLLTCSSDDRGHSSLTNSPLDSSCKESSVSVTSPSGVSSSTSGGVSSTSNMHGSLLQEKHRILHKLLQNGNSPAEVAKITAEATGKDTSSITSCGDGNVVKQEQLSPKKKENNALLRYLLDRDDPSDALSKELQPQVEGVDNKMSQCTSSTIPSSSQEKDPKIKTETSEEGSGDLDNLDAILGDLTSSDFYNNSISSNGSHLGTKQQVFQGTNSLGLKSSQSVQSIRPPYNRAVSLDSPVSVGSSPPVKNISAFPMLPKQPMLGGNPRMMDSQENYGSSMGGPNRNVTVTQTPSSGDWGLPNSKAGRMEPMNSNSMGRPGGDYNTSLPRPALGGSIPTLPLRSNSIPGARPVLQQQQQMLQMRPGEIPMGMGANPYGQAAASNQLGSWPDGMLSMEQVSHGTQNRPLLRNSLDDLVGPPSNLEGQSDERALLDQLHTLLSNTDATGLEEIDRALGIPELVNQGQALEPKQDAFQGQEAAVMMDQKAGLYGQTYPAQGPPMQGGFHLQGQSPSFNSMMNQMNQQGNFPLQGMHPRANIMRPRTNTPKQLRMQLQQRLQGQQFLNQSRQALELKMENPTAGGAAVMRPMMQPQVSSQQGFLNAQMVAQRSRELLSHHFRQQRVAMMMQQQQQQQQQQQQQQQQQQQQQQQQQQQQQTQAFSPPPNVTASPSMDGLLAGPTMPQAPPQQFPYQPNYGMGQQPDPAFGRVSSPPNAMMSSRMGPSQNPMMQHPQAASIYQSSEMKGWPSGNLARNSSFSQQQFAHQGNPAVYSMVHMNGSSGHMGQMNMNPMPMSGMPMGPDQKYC

Chain of progesterone receptor isoform A (PR-A), full-length, Strep II-tagged (human) (P06401 165-933): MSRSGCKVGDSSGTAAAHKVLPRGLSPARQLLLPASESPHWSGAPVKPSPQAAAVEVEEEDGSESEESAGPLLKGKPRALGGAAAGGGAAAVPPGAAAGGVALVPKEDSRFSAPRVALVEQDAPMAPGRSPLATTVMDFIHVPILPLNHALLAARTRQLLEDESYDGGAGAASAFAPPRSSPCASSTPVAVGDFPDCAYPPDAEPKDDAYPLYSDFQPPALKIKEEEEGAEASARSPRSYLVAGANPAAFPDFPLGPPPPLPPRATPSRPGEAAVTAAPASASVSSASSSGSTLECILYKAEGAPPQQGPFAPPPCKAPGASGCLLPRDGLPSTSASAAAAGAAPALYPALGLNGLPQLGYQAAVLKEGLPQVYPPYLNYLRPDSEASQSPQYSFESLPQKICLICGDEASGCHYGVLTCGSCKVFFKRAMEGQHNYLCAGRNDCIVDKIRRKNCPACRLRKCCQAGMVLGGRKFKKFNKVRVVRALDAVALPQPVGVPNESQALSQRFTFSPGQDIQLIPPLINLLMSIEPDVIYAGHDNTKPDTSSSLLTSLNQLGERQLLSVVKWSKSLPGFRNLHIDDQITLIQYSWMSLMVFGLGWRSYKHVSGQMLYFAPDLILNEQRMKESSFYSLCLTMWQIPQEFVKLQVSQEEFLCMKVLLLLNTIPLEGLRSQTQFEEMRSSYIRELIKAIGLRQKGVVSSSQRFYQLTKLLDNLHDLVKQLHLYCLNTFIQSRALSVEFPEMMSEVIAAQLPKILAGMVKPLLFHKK

A stoichiometry N [1] of 0.5 p300 per PR and a stoichiometry N (p300 per SRC3) [2] of 1 were found for “histone acetyltransferase p300, full-length, Strep II-tagged, Q09472 1-2414” in this work.

Reference: paper PMC12069617
